Experimental data from patent US20080306007.

Columns and labels:
[1] = target: syndapin I (native, from rat brain lysate or synaptosomes)
[2] = target: T1, endophilin I (native, from rat brain lysate or synaptosomes), O35179
T1 chain: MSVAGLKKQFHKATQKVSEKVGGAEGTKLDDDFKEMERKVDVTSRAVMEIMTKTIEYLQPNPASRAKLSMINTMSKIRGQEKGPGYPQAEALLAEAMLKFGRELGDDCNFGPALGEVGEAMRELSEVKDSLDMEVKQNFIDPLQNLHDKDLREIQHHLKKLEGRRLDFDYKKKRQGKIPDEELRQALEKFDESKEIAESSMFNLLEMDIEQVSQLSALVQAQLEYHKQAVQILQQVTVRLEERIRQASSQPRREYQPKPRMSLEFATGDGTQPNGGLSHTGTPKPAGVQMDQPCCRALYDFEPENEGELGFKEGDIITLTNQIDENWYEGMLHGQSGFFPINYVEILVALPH

Sequence of syndapin I (native, from rat brain lysate or synaptosomes) (chain, as listed by the source): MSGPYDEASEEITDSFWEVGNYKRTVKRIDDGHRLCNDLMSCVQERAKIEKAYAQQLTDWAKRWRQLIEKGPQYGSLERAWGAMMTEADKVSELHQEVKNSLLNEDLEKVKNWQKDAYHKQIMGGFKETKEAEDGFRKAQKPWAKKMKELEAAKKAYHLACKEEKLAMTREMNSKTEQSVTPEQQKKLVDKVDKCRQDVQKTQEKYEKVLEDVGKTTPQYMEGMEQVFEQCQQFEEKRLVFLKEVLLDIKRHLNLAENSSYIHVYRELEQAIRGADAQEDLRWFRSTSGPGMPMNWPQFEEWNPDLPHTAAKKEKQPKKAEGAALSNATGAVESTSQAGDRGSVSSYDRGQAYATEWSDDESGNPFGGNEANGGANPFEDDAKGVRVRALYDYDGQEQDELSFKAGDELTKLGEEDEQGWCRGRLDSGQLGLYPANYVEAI

Protein	total SV recycling pool (FM4-64) in transfected CGNs [1]	also measured
DynI-PB2-GFP (protein) MGNRGMEDLIPLVNRLQDAFSAIGQNADLDLPQIAVVGGQSAGKSSVLENFVGRDFLPRGSGIVTRRPLVLQLVNSTTEYAEFLHCKGKKFTDFEEVRLEIEAETDRVTGTNKGISPVPINLRVYSPHVLNLTLVDLPGMTKVPVGDQPPDIEFQIRDMLMQFVTKENCLILAVSPANSDLANSDALKIAKEVDPQGQRTIGVITKLDLMDEGTDARDVLENKLLPLRRGYIGVVNRSQKDIDGKKDITAALAAERKFFLSHPSYRHLADRMGTPYLQKVLNQQLTNHIRDTLPGLRNKLQSQLLSIEKEVDEYKNFRPDDPARKTKALLQMVQQFAVDFEKRIEGSGDQIDTYELSGGARINRIFHERFPFELVKMEFDEKELRREISYAIKNIHGIRTGLFTPDLAFEATVKKQVQKLKEPSIKCVDMVVSELTSTIRKCSEKLQQYPRLREEMERIVTTHIREREGRTKEQVMLLIDIELAYMNTNHEDFIGFANAQQRSNQMNKKKTSGNQDEILVIRKGWLTINNIGIMKGGSKEYWFVLTAENLSWYKDDEEKEKKYMLSVDNLKLRDVEKGFMSSKHIFALFNTEQRNVYKDYRQLELACETQEEVDSWKASFLRAGVYPERVGDKEKASETEENGSDSFMHSMDPQLERQVETIRNLVDSYMAIVNKTVRDLMPKTIMHLMINNTKEFIFSELLANLYSCGDQNTLMEESAEQAQRRDEMLRMYHALKEALSIIGDINTTTVSTPMPPPVDDSWLQVQSVPAGEESPTSSPTPQRRAPAVPPARPGSRGPAPGPPPAGSALGGAPPVPSRPGASPDPFGPPPQVPSRPNRAPPGVPSRSGQASPSRPESPRPPFDL		total synaptic recycling pool (FM4-64) in transfected CGNs [1]: 59.5±4.3% of control for DynI-PB2-GFP
DynI-3B-GFP (protein) MGNRGMEDLIPLVNRLQDAFSAIGQNADLDLPQIAVVGGQSAGKSSVLENFVGRDFLPRGSGIVTRRPLVLQLVNSTTEYAEFLHCKGKKFTDFEEVRLEIEAETDRVTGTNKGISPVPINLRVYSPHVLNLTLVDLPGMTKVPVGDQPPDIEFQIRDMLMQFVTKENCLILAVSPANSDLANSDALKIAKEVDPQGQRTIGVITKLDLMDEGTDARDVLENKLLPLRRGYIGVVNRSQKDIDGKKDITAALAAERKFFLSHPSYRHLADRMGTPYLQKVLNQQLTNHIRDTLPGLRNKLQSQLLSIEKEVDEYKNFRPDDPARKTKALLQMVQQFAVDFEKRIEGSGDQIDTYELSGGARINRIFHERFPFELVKMEFDEKELRREISYAIKNIHGIRTGLFTPDLAFEATVKKQVQKLKEPSIKCVDMVVSELTSTIRKCSEKLQQYPRLREEMERIVTTHIREREGRTKEQVMLLIDIELAYMNTNHEDFIGFANAQQRSNQMNKKKTSGNQDEILVIRKGWLTINNIGIMKGGSKEYWFVLTAENLSWYKDDEEKEKKYMLSVDNLKLRDVEKGFMSSKHIFALFNTEQRNVYKDYRQLELACETQEEVDSWKASFLRAGVYPERVGDKEKASETEENGSDSFMHSMDPQLERQVETIRNLVDSYMAIVNKTVRDLMPKTIMHLMINNTKEFIFSELLANLYSCGDQNTLMEESAEQAQRRDEMLRMYHALKEALSIIGDINTTTVSTPMPPPVDDSWLQVQSVPAGRRSPTSSPTPQRRAPAVPPARAGSRGPAPGPPPAGSALGGAPPVPSRPGASPDPFGPPPQVPSRPNRAPPGVPSRSGQASPSRPESPRPPFDL		total synaptic recycling pool (FM4-64) in transfected CGNs [2]: 56.8±4.4% for DynI-3B-GFP
DynI^dmE-GFP (protein) MGNRGMEDLIPLVNRLQDAFSAIGQNADLDLPQIAVVGGQSAGKSSVLENFVGRDFLPRGSGIVTRRPLVLQLVNSTTEYAEFLHCKGKKFTDFEEVRLEIEAETDRVTGTNKGISPVPINLRVYSPHVLNLTLVDLPGMTKVPVGDQPPDIEFQIRDMLMQFVTKENCLILAVSPANSDLANSDALKIAKEVDPQGQRTIGVITKLDLMDEGTDARDVLENKLLPLRRGYIGVVNRSQKDIDGKKDITAALAAERKFFLSHPSYRHLADRMGTPYLQKVLNQQLTNHIRDTLPGLRNKLQSQLLSIEKEVDEYKNFRPDDPARKTKALLQMVQQFAVDFEKRIEGSGDQIDTYELSGGARINRIFHERFPFELVKMEFDEKELRREISYAIKNIHGIRTGLFTPDLAFEATVKKQVQKLKEPSIKCVDMVVSELTSTIRKCSEKLQQYPRLREEMERIVTTHIREREGRTKEQVMLLIDIELAYMNTNHEDFIGFANAQQRSNQMNKKKTSGNQDEILVIRKGWLTINNIGIMKGGSKEYWFVLTAENLSWYKDDEEKEKKYMLSVDNLKLRDVEKGFMSSKHIFALFNTEQRNVYKDYRQLELACETQEEVDSWKASFLRAGVYPERVGDKEKASETEENGSDSFMHSMDPQLERQVETIRNLVDSYMAIVNKTVRDLMPKTIMHLMINNTKEFIFSELLANLYSCGDQNTLMEESAEQAQRRDEMLRMYHALKEALSIIGDINTTTVSTPMPPPVDDSWLQVQSVPAGRREPTSEPTPQRRAPAVPPARPGSRGPAPGPPPAGSALGGAPPVPSRPGASPDPFGPPPQVPSRPNRAPPGVPSRSGQASPSRPESPRPPFDL	64.4±6.2% of control	
DynI^dmA-GFP (protein) MGNRGMEDLIPLVNRLQDAFSAIGQNADLDLPQIAVVGGQSAGKSSVLENFVGRDFLPRGSGIVTRRPLVLQLVNSTTEYAEFLHCKGKKFTDFEEVRLEIEAETDRVTGTNKGISPVPINLRVYSPHVLNLTLVDLPGMTKVPVGDQPPDIEFQIRDMLMQFVTKENCLILAVSPANSDLANSDALKIAKEVDPQGQRTIGVITKLDLMDEGTDARDVLENKLLPLRRGYIGVVNRSQKDIDGKKDITAALAAERKFFLSHPSYRHLADRMGTPYLQKVLNQQLTNHIRDTLPGLRNKLQSQLLSIEKEVDEYKNFRPDDPARKTKALLQMVQQFAVDFEKRIEGSGDQIDTYELSGGARINRIFHERFPFELVKMEFDEKELRREISYAIKNIHGIRTGLFTPDLAFEATVKKQVQKLKEPSIKCVDMVVSELTSTIRKCSEKLQQYPRLREEMERIVTTHIREREGRTKEQVMLLIDIELAYMNTNHEDFIGFANAQQRSNQMNKKKTSGNQDEILVIRKGWLTINNIGIMKGGSKEYWFVLTAENLSWYKDDEEKEKKYMLSVDNLKLRDVEKGFMSSKHIFALFNTEQRNVYKDYRQLELACETQEEVDSWKASFLRAGVYPERVGDKEKASETEENGSDSFMHSMDPQLERQVETIRNLVDSYMAIVNKTVRDLMPKTIMHLMINNTKEFIFSELLANLYSCGDQNTLMEESAEQAQRRDEMLRMYHALKEALSIIGDINTTTVSTPMPPPVDDSWLQVQSVPAGRRAPTSAPTPQRRAPAVPPARPGSRGPAPGPPPAGSALGGAPPVPSRPGASPDPFGPPPQVPSRPNRAPPGVPSRSGQASPSRPESPRPPFDL	28±3.5% of control	
